Here are results for one molecule from patent publication US20250230247A1.

Broadly, the EC50 is the concentration needed to bring the measured effect to its halfway point. Read a low EC50 as an effect from little substance.

Test [1] concerns the target T1, human Dectin-1 isoform A (human) (UniProt Q9BXN2).
T1 sequence: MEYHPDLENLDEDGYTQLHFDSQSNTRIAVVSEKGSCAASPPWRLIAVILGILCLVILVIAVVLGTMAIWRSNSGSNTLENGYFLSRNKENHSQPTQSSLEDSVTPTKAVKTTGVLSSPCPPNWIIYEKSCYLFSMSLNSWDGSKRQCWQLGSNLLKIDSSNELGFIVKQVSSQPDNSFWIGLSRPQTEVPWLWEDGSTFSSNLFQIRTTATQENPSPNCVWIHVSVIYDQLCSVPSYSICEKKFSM
In words: flow cytometry on HEK-Blue hDectin-1a cells (summary table).

Test [2] concerns the target human Dectin-1 expressed on cells (isoform not given) (human) (UniProt Q9BXN2). Nature of the test: flow cytometry on human monocytes (summary table). (Flow cytometry measures light scatter and fluorescence of single cells or particles in a stream.)
Test [3] addresses T1, human Dectin-1 isoform A (human). In words: flow cytometry on HEK-Blue hDectin-1a cells.
For test [4] the target is unchanged. In words: flow cytometry on HEK293F hDectin-1a FL cells.
Test [5] addresses human Dectin-1 expressed on cells (isoform not given) (human) (UniProt Q9BXN2). In words: flow cytometry on human monocytes.
Test [6] addresses T1, human Dectin-1 isoform A (human). In words: flow cytometry on HEK293F hDectin-1a FL cells (summary table).
The target of test [7] is human Dectin-1 expressed on cells (isoform not given) (human) (UniProt Q9BXN2).

B1: commercial anti-Dectin-1 antibody 15E2 (antibody, from a related filing, V domains shown)
VH: QWQLQQSGAELARPGASWKMSCKASGYTFTTYTMHWWKQRPGQGLEWIGYINPSSGYTNYNQKFKDKATLTADKSSSTASMQLSSLTSEDSAWYYCARERAVLVPYAMDYWGQGTSVTVSS
VL: QIVLTQSPAVMSASPGEKWTITCTASSSLSYMHWFQQKPGTSPKLWLYSTSILASGVPTRFSGSGSGTSYSLTISRMEAEDAATYYCQQRSSSPFTFGSGTKLEIK
Turning to B1, the EC50 in test [1] is 1.2 nM; in test [2] it was 0.6 nM; in test [3], 1.2 nM; in test [4] it was 1.4 nM; in test [5], 0.6 nM; in test [6], 1.4 nM. In test [7], this molecule registered an IFNg secretion in PBMC, immobilized antibody (fold change to isotype) of 1.6. The IL6 secretion in PBMC, immobilized antibody (fold change to isotype) in test [7] amounted to 2.6. The molecule also showed a TNFa secretion in PBMC, immobilized antibody (fold change to isotype) in test [7] of 3.
